Results on one molecule are retold here after US20090291088A1, “THERAPEUTIC COMBINATIONS OF ANTI-IGF-1R ANTIBODIES AND OTHER COMPOUNDS” (Biogen Idec MA Inc., priority 2008, published 2009).

Assay [1] addresses T1, hIGF-1R(1-462)-Fc (Homo sapiens, UniProt P08069).
T1 construct: host or cells: CHO
Nature of the assay: SPR binding of immobilized antibodies to truncated hIGF-1R(1-462)-Fc versus hIGF-1R(1-903)Fc. Conditions: surface immobilized antibody. From the text: Next, we investigated whether M13-C06 binds the putative ligand binding domains of IGF-1R (L1-CR-L2). We generated a truncated version of the receptor containing the N-terminal three domains (residues 1-462) fused to an IgG1-Fc and compared its ability to bind M13-C06, M14-C03, and M14-G11 to that of the full-length receptor ectodomain construct, hIGF-1R-Fc, using surface plasmon resonance (SPR).
Background: SPR reads the build-up and loss of mass on a sensor chip optically.

Assay [2] concerns the target T2, hIGF-1R-Fc (Homo sapiens, UniProt P08069).
T2 construct: (3) human IGF-1R(1-903)-Fc (hIGF-1R-Fc, Biogen Idec); host or cells: CHO
Nature of the assay: Antibody cross-blocking ELISA with biotinylated M13-C06 or M14-G11. It counts as binding. As to the method:
The ability of various antibodies to block M13-C06 or M14-G11 was determined using biotinylated version of both antibodies and hIGF-1R-Fc. Briefly, 50 μL of 2 μg/mL hIGF-1R-Fc in 1×PBS were coated per well of a 96-well clear MaxiSorp plate (Nunc) for 2 hours at room temperature (RT, no shaking). Plates were washed with 1×PBS and blocked overnight at 2-8° C. using a PBS/1% BSA solution. Plates were washed and incubated with a 100 μL mixture of biotinylated M13-C06 or biotinylated M14-G11 (80 ng/mL) and inhibitor antibody for 1 hour at RT. Inhibitor antibodies were serially diluted (5-fold dilutions) from 40 μg/mL to 3 ng/mL. M13-C06 and M14-G11 were biotinylated using EZ-Link Sulfo-NHS-LC-Biotin according to protocol provided by the manufacturer (Pierce Cat. No. 21335). A control was also performed by serial dilution of a non-IGF-1R specific IgG4 isotype control antibody with biotinylated M13-C06 or biotinylated M14-G11. Plates were washed and shaken for 1 hour at RT with 100 μL/well streptavidin-HRP (1:4000 dilution into blocking buffer, Southern Biotech Cat. No. 7100-05). Plates were washed and 100 μL/well SureBlue Reserve TMB Microwell Peroxidase Substrate (KPL, Cat. No. 53-00-01) was added to the wells. Detection of the presence of biotinylated M13-C06 or M14-G11 was performed by reading the absorbance at 650 nm every 5 minutes using a Wallac 1420-041 Multilabel Counter plate reader.

The target of assay [3] is T3, recombinant human IGF-1R-10His (Homo sapiens, UniProt P08069).
T3 construct: denoted hIGF-1R(1-902)-His10, was purchased from R&D systems (Cat. No. 305-GR-050); purchased R&D Systems 305-GR-050
Nature of the assay: SPR, antibodies and Fabs on IGF-1R-His captured via PENTA-His antibody. It counts as binding. As to conditions: full-length antibodies, 64 nM to 0.5 nM.

B1: M14-C03: anti-IGF-1R antibody, allosteric blocker of IGF-1 and IGF-2 (antibody, V domains shown)
VH: EVQLLESGGGLVQPGGSLRLSCAASGFTFSKYMMSWVRQAPGKGLEWVSYISPSGGLTWYADSVKGRFTISRDNSKNTLYLQMNSLRAEDTAVYYCARDGARGYGMDVWGQGTTVTVSS
VL: DIQMTQSPATLSLSPGERATLSCRASQSVSSYLAWYQQKPGQAPRLLIYDASNRATGIPARFSGSGSGTDFTLTISSLEPEDFAVYYCQQRSNWPPEVTFGPGTKVDIK
modifications: Antibody variable heavy chain sequence; Antibody variable light chain sequence
On to B1, for which the “binding to truncated hIGF-1R(1-462)-Fc compared with full-length hIGF-1R-Fc” value in assay [1] is reported as “dramatically reduced”. For the same molecule, the M13-C06 cross-blocking entry in assay [2] is “+++++ (+++++ = antibody binding competition relative to itself (90-100%))”. For the same molecule, in assay [3], the “binding to immobilized recombinant human IGF-1R (SPR)” value is recorded as “strong binding”.
